According to publication PMC9474506:

What was measured:
[1] = target: Flag-tagged PU.1 F203Y (human) (UniProt P17947)
[2] = target: Flag-tagged PU.1 Q202L (human) (UniProt P17947)
[3] = target: Flag-tagged PU.1 Y252N (human) (UniProt P17947)
[4] = target: Flag-tagged PU.1 wild-type (human) (UniProt P17947)

luciferase activity of the human M-CSFR promoter reporter, F9 cells, PU.1 mutant co-transfected with c-Jun, fold activation [1]: 5 fold | luciferase activity of the human M-CSFR promoter reporter, F9 cells, PU.1 mutant co-transfected with c-Jun, fold activation [2]: 5 fold | luciferase activity of the human M-CSFR promoter reporter, F9 cells, PU.1 mutant co-transfected with c-Jun, fold activation [3]: 3.5 fold | luciferase activity of the human M-CSFR promoter reporter, F9 cells (no endogenous c-Jun), PU.1 co-transfected with c-Jun, fold activation [4]: 25 fold
Substance: myc-tagged c-Jun (from UniProt P05412 1-331) (natural protein)
